{
  "source": "the DeepSol protein solubility set",
  "data": [
    {"assay": "soluble on expression in E. coli; label from the status in PepcDB or PDB records", "values": [
      {"sequence": "MKMVTGAVASVLEDEATDTSDSEGSCGSEKDHFYSDDDAIEADSEGDAEPCDKENENDGESSVGTNMGWADAMAKVLNKKTPESKPTILVKNKKLEKEKEKLKQERLEKIKQRDKRLEWEMMCRVKPDVVQDKETERNLQRIATRGVVQLFNAVQKHQKNVDEKVKEAGSSMRKRAKLISTVSKKDFISVLRGMDGSTNETASSRKKPKAKQTEVKSEEGPGWTILRDDFMMGASMKDWDKESDGPDDSRPESASDSDT", "soluble on expression in E. coli": "not soluble"},
      {"sequence": "MADQYHEPVSELTGKDRDFVRALNSLKEEIEAVAWYHQRVVTTKDETVRKILEHNRDEEMEHAAMLLEWLRRNMPGWDEALRTYLFTDKPITEIEEETSGGSENTGGDLGIRKL", "soluble on expression in E. coli": "soluble"},
      {"sequence": "MSLRYSKLTMLIPCALLLSACTTVTPAYKDNGTRSGPCVEGGPDNVAQQFYDYRILHRSNDITALRPYLSDKLATLLSDASRDNNHRELLTNDPFSSRTTLPDSAHVASASTIPNRDARNIPLRVDLKQGDQGWQDEVLMIQEGQCWVIDDVRYLGGSVHATAGTLRQSIENREGHHHHHH", "soluble on expression in E. coli": "soluble"},
      {"sequence": "MAHHHHHHMTERSPALVPAVSLLREELQLLNGVVEGQARSRVYRHHIFFRKASFLRSALRNALPQFARRAADPTDLRTVAGRLLTLTIRCAESATLELSASHIDTVSVALLLLAITSRIGCVLCVVLGRKPETFGKLHFIGSKFGVKYKRSRSEAELAEETIGVATPIRRRTIGGVIEAVIK", "soluble on expression in E. coli": "not soluble"},
      {"sequence": "AHHHHHHGSDWKGRDVISIRDFSKEDIEIVLSTAERLEKELKEKGQLEYARGKILATLFFEPSTRTRLSFESAMHRLGGAVIGFAEASTSSVKKGESLADTIKTVEQYSDVIVIRHPKEGAARLAAEVAEIPVINAGDGSNQHPTQTLLDLYTIRKEFGKIDGLKIGLLGDLKYGRTVHSLAEALAYYDVELYLISPELLRMPRHIVEELREKGVTVYETSDLMSVIGELDVLYVTRIQKERFPDEQEYLKVRGSYQVNLQVLSKAKETLKVMHPLPRVDEIHPEVDKTKHAIYFKQVFNGIPVRMALLGLVLGVI", "soluble on expression in E. coli": "soluble"},
      {"sequence": "MSEGPKKAGVLGSPIAHSRSPQLHLAAYRALGLHDWTYERIECGAAELPVVVGGFGPEWVGVSVTMPGKFAALRFADERTARADLVGSANTLVRTPHGWRADNTDIDGVAGALGAAAGHALVLGSGGTAPAAVVGLAELGVTDITVVARNSDKAARLVDLGTRVGVATRFCAFDSGGLADAVAAAEVLVSTIPAEVAAGYAGTLAAIPVLLDAIYDPWPTPLAAAVGSAGGRVISGLQMLLHQAFAQVEQFTGLPAPREAMTCALAALD", "soluble on expression in E. coli": "not soluble"},
      {"sequence": "MDTRTRHLKVSNCPNNSYALANVAAVSPNDFPNNIYIIIDNLFVFTTRHSNDIPPGTIGFNGNQRTWGGWSLNQDVQAKAFDLFKYSGKQSYLGSIDIDISFRARGKAVSTVFDQDELAKQFVRCYESQIFSPTQYLIMEFQGHFFDLKIRNVQAIDLGDIEPTSAVATGIETKGILTKQTQINFFKGR", "soluble on expression in E. coli": "soluble"},
      {"sequence": "MGSDKIHHHHHHMKMKEFLDLLNESRLTVTLTGAGISTPSGIPDFRGPNGIYKKYSQNVFDIDFFYSHPEEFYRFAKEGIFPMLQAKPNLAHVLLAKLEEKGLIEAVITQNIDRLHQRAGSKKVIELHGNVEEYYCVRCEKKYTVEDVIKKLESSDVPLCDDCNSLIRPNIVFFGENLPQDALREAIGLSSRASLMIVLGSSLVVYPAAELPLITVRSGGKLVIVNLGETPFDDIATLKYNMDVVEFARRVMEEGGIS", "soluble on expression in E. coli": "not soluble"},
      {"sequence": "MRLKDLGERALLARLAPLGYPPEAPLPPGDDAGGVWAEGRAWLLKTDGFLYREVALKGMGPFEVGFRGVAATASDLLAKMGRPLGFTLGLFLPEDLEEGFVLELVRGAAEAAKRLGAFLLGGDTNRGVEVALTVSGYALAEAPLPRKALPGDLLYLAGDRWGRTGAAIRAHYEGRSLEGFPKIREAAFYPLPRLELLALSGLLRGSLDSSDGLAETLWQLADLGVGVEVEALPLYPDVLAFAGSEEAALELVLYGGEEFEAVLVVPQEGAAAVEARAKAKGLPLFRAGRVVAGEGVYLRGAPLPRKGYAHF", "soluble on expression in E. coli": "soluble"},
      {"sequence": "MKGVNQQKKRLKVMTPLEKYQQDLNQEGFMHDSAQRNAVEHLDDLYRRFLELKVPEEPAKKSWKRFFKKEKPQKLTPEKGLYFWGGVGRGKTYLVDTFYDALPTERKMRIHFHRFMQRVHDELGELKQQSDPLLIVADKFKQETDIICFDEFFVSDITDAMILATLLEALFARGITLVATSNILPQDLYRNGLQRARFLPAISLIEQHCDIINVDSGVDYRLRTLEQAEIYHYPLDSDAETNMKGYFLQLASGCDYESTQIEINHRLIEVKAEGDGVVHFDFASLCESARSQHDYIELSRLYHTVLLSNVKIMGEVNDDAARRFIAMVDEFYERNVKLIISAEVDLTSIYQKGRLTFEFQRCQSRLIEMQSHEYLSKEHLSLEHHHHHH", "soluble on expression in E. coli": "not soluble"},
      {"sequence": "MSLGAMPTVRDLRLIPFRIPLKAPLRWGKSSELAALEHALLEVELSDGSIGRAEVAIRPTIYGETLGSVRAGLEYLRPRLLGLEADDQEGIRAVLEAFPFNFGLKGALDTALWEAWARSEGEELYQVLKPAKHRVRVAYILGLGEEDEVLEDARMAFGAGVRVFKVKVGRDLEADTRRILRLKEAFPEAELYADANESLPPKEAERYLLAWKELGLRYVEEPLPVEEVEARRALREKGILSLIADDAAMTPKDLKRELALNTFDVLNLKPARTGVTWTLEMLALARERGKKAMVGSQAQSAFGAYQSALLAFQQGVTEPCELAFHLKAEGGFFPFPPFREGWLYWEDLVEARFDEEAFARYALKEAEGHHHHHH", "soluble on expression in E. coli": "soluble"},
      {"sequence": "RQTHYLIHSDLGFRTRGVLWISNTVDSVPKGILRAELEKIPGVEKVSYACGNPIRYLNNMSFTKDGVNVSTWEMVVDSVFFDFFEISPIPLTDEPVETFFDREKMRAARIIPEWGNMKMINAVRPDPETGIFTQGDDDNDEVKYRMVGRIPDLKYKPLNMEQSPLQIRPLYAREQPWVTLVRASDEADKSAVLAAVSDTYKRVTGAEDIEPLWAEDIILDRYKSQTNLSQ", "soluble on expression in E. coli": "not soluble"},
      {"sequence": "MKFRRSGRLVDLTNYLLTHPHELIPLTFFSERYESAKSSISEDLTIIKQTFEQQGIGTLLTVPGAAGGVKYIPKMKQAEAEEFVQTLGQSLANPERILPGGYVYLTDILGKPSVLSKVGKLFASVFAEREIDVVMTVATKGIPLAYAAASYLNVPVVIVRKDNKVTEGSTVSINYVSGSSNRIQTMSLAKRSMKTGSNVLIIDDFMKAGGTINGMINLLDEFNANVAGIGVLVEAEGVDERLVDEYMSLLTLSTINMKEKSIEIQNGNFLRFFKDNLLKNGETESHHHHHH", "soluble on expression in E. coli": "soluble"},
      {"sequence": "MGSDKIHHHHHHVEMPGTTEPLGKMVKVEGKKDEHKGDFFLTTVQIARANLATMIYSHFNSFTSIYSEQEMTGGLNDAQFNRVNQFYMETAQNTAIYQAFKLANKPYELKYEGVYVLDIAKNSTFKNKLELADTITAVNGQQFTSSADMIAYVSKQKVGDSVTIEYTRIDGTKHKSTGKYIKIANGKTGIGISLVDHTEVVTTPKVTVNAGSIGGPSAGMMFTLEIYSQLTGKDLRNGREIAGTGTIEHDGSIGQIGGVDKKVATASKEGAKVFLVPDSGTKKESSNNYLGAKTAAKKLKTKMKIVPVKTIQDALDYLEK", "soluble on expression in E. coli": "not soluble"},
      {"sequence": "MIGPISQINISGGLSEKETSSLISNEELKNIITQLETDISDGSWFHKNYSRMDVEVMPALVIQANNKYPEMNLNLVTSPLDLSIEIKNVIENGVRSSRFIINMGEGGIHFSVIDYKHINGKTSLILFEPANFNSMGPAMLAIRTKTAIERYQLPDCHFSMVEMDIQRSSSECGIFSFALAKKLYIERDSLLKIHEDNIKGILSDGKNPLPHDKLDPYLPVTFYKHTQGKKRLNEYLNTNPQGVGTVVNKKNETIVNRFDNNKSIVDGKELSVSVHKKRIAEYKTLLKV", "soluble on expression in E. coli": "not soluble"},
      {"sequence": "MGSDKIHHHHHHMSVNPLFKVILHPFIKESIASLKAMTNLTGVAGDPFMDKVEDFRFKGYAVCSDVTGSLDGVIMMHHYPETAIAIGNSVCQNMFNETYAFDAINDDLRNALAEWGNTIVGRSTDLHSRHKLEYGFSSPYFVEDLTEMDKYLVGVKQVITVPIMVEGIGRYYFNLLIRDVVEQVANVDIDAQSIDVENTHTTPLPLTSTVLVVDDSAMIRKAISRFLNNLGYHNVIEADDGIGAIEAVKAGKVDFIFMDVVMTRLNGDAALAELRNMGSQVPVVMLSSVTDNILVKQCQKHGISGFIFKPINANNGAETIAKYLKIAAAVAI", "soluble on expression in E. coli": "not soluble"}
    ]}
  ]
}
